Experiments:
[1] = biological target: T1, human CD3 (human, UniProt P07766 23-207); assay: cell binding, human PBMC
T1 construct: whole, on cells; also called CD3 on human T-cells

[2] = biological target: T1, human CD3; assay: cell binding, human T-cells; parameters: Bmax: unit not given here
[3] = biological target: T2, cyno CD3 (cyno (cynomolgus monkey), UniProt Q95LI5 22-198); assay: cell binding, cynomolgus T-cells
T2 construct: whole, on cells; also called CD3 on Cynomolgus T-cells

[4] = biological target: T2, cyno CD3; assay: cell binding, activated cyno PBMC
[5] = biological target: Folate receptor-alpha (FOLR1) (human) (UniProt P15328); assay: summary table; FRα affinity over CD3 affinity
[6] = biological target: T1, human CD3; assay: cell binding, activated human PBMC
[7] = biological target: Folate receptor-alpha (FOLR1) (human) (UniProt P15328); assay: summary table; cell binding through the folate moiety
[8] = biological target: T1, human CD3; assay: cell binding, human CD3, 50 nM SFA present
[9] = biological target: T1, human CD3; assay: summary table; cell binding EC50, human PBMC
[10] = biological target: T2, cyno CD3; assay: cell binding, activated cyno PBMC; E. coli protein
[11] = biological target: T1, human CD3; assay: cell binding, activated human PBMC; E. coli protein
[12] = biological target: Folate receptor-alpha (FOLR1) (human) (UniProt P15328); assay: cell binding, FOLRα-expressing KB cells; through the folate moiety
[13] = biological target: T2, cyno CD3; assay: cell binding, cyno CD3 (activated cyno PBMC); cyno CD3 (second number of the cell)
Procedure: (§1) Testing for CD3 binding with activated human and cyno PBMC: To distinguish between the humanized anti-CD3 antibodies generated, binding to human CD3 was tested using activated human PBMCs (n=2). The activation of PBMCs and subsequent fluorescence-based CD3 binding assays were followed as described previously (see for example, Angew Chem Int Ed Engl, 52(46):12101-12104, 2013). […] The binding of the remaining 6 humanized antibodies to both human and cyno CD3 using activated human and cyno PBMCs, respectively, was titrated. […] The six (6) humanized anti-CD3 antibodies were obtained as follows: Fab1, Fab2 and Fab3 wildtype were generated by combination of LC ((vL1.2+CL); (SEQ.ID. NO:7)) and HC ((vH1.2+CH1); (SEQ.ID. NO:1)), ((vH1.1+CH1); (SEQ.ID. NO:2)) and ((vH1.0+CH1); (SEQ.ID. NO:3)) respectively. Fab4, Fab 5 and Fab6 wildtype were generated by combination of LC ((vL1.1+CL); (SEQ.ID. NO:8)) and HC ((vH1.2+CH1); (SEQ.ID. NO:1)), ((vH1.1+CH1); (SEQ.ID. NO:2)) and ((vH1.0+CH1); (SEQ.ID. NO:3)) respectively.
(§2) Binding of Folate-conjugated Fabs to human and cyno CD3: Binding of E. coli produced and Folate-conjugated low-affinity variants of humanized anti-CD3 Fabs was performed as described in the above Examples.

[14] = biological target: T1, human CD3; assay: cell binding, human CD3 (activated human PBMC); human CD3 (first number of the cell)
Procedure: as §1, §2

[15] = biological target: Folate receptor-alpha (FOLR1) (human) (UniProt P15328); assay: cell binding, SKOV-3 cells with 50 nM SFA; through the folate moiety; SKOV-3 cells, with 50 nM SFA; binding through the conjugated folate
[16] = biological target: T1, human CD3; assay: cell binding, human PBMC, 20 nM SFA present
[17] = biological target: T1, human CD3; assay: cell binding, human T-cells; assigned to the Bi5KPEG-BiFolate / BiFolate pair from Table 37

T2 sequence (Q95LI5 22-198): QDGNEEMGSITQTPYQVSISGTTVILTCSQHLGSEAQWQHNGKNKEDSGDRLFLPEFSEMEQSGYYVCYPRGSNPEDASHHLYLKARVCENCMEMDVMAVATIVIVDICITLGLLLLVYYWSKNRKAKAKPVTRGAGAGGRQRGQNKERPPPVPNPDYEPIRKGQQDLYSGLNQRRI
Folate receptor-alpha (FOLR1) (human), sequence (P15328 25-234): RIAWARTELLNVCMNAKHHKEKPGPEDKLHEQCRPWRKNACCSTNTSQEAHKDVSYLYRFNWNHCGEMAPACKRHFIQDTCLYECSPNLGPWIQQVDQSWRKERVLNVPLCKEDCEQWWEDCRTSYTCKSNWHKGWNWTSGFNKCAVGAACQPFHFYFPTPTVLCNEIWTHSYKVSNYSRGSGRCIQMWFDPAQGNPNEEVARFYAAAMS
T1 sequence (P07766 23-207): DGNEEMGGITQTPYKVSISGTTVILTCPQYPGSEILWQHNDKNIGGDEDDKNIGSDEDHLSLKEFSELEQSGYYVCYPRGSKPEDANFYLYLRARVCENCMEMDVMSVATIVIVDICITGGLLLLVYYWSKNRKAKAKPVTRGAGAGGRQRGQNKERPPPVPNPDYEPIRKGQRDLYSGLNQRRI

B1: Fab1-HK129-Folate (Fab, V domains shown)
VH: EVQLVESGGGLVQPGGSLRLSCAASGFTFNTYAMNWVRQAPGKGLEWVARIRSKYNNYATYYADSVKDRFTISRDDSKNILYLQMNSLKTEDTAVYYCVRHGNFGNSYVSWFAYWGQGTLVTVSS
VL: QAVVTQEPSLTVSPGGTVTLTCRSSTGAVTTSNYANWVQQKPGQAPRGLIGGTNKRAPGTPARFSGSLLGGKAALTLSGAQPEDEAEYYCALWYSNLWVFGGGTKLTVLG
modifications: pAF at HK129 (Kabat) conjugated to folate (oxime)
notes: From E. coli; also called Folate lead; parent control
- EC50 [1]: 2.45 nM
- Bmax [2]: 30100
- Kd [2]: 1.53 nM
- Bmax [3]: 25700
- Kd [3]: 2.69 nM
- EC50 [4]: 1.41 nM
- Affinity ratio (FRα:CD3) [5]: 35
- EC50 [6]: 2.78 nM
- FRα binding affinity [7]: 59.6 nM
- EC50 [8]: 2 nM
- CD3 binding affinity [9]: 1.69 nM
- EC50 [10]: 2.05 nM
- EC50 [11]: 1.69 nM
- Bmax [12]: 101000
- Kd [12]: 1.97 nM
- EC50 [13]: 3.3 nM
- EC50 [14]: 2.31 nM
- EC50 [15]: 44.5 nM

B2: Fab1-HK129-LL157-BiFolate-Bi5KPEG (Fab, V domains shown)
VH: B1 VH
VL: B1 VL
modifications: pAF at LL157 (Kabat) conjugated to a bifunctional linker carrying folate and 5K PEG (oxime); pAF at HK129 (Kabat) conjugated to a bifunctional linker carrying folate and 5K PEG (oxime)
notes: From E. coli; carries two folates and two 5K PEG; also called Fab1-HK129-LL157-Bi5KPEG-BiFolate
- Bmax [2]: 15300
- Kd [2]: 3.34 nM
- Bmax [3]: 13200
- Kd [3]: 5.01 nM
- EC50 [8]: 7.5 nM
- EC50 [16]: 5.7 nM
- Bmax [12]: 83100
- Kd [12]: 2.28 nM
- fold lower binding affinity (vs the non-pegylated version) [17]: ~5 fold
